{
  "source": "the Immune Epitope Database (IEDB)",
  "key": {"HLA-B*18:01": {"target": "HLA-B*18:01", "assay": "IEDB peptide-MHC binding, purified MHC/competitive/radioactivity; filed as Kd, often an IC50 or EC50 that approximates it; ≥ and ≤ were set here for values at or beyond the usual limits of such assays"}, "HLA-B*44:02": {"target": "HLA-B*44:02", "assay": "IEDB peptide-MHC binding, purified MHC/competitive/radioactivity; filed as Kd, often an IC50 or EC50 that approximates it; ≥ and ≤ were set here for values at or beyond the usual limits of such assays"}, "HLA-B*40:02": {"target": "HLA-B*40:02", "assay": "IEDB peptide-MHC binding, purified MHC/competitive/radioactivity; filed as Kd, often an IC50 or EC50 that approximates it; ≥ and ≤ were set here for values at or beyond the usual limits of such assays"}, "HLA-B*44:03": {"target": "HLA-B*44:03", "assay": "IEDB peptide-MHC binding, purified MHC/competitive/radioactivity; filed as Kd, often an IC50 or EC50 that approximates it; ≥ and ≤ were set here for values at or beyond the usual limits of such assays"}, "HLA-B*40:01": {"target": "HLA-B*40:01", "assay": "IEDB peptide-MHC binding, purified MHC/competitive/radioactivity; filed as Kd, often an IC50 or EC50 that approximates it; ≥ and ≤ were set here for values at or beyond the usual limits of such assays"}, "HLA-B*45:01": {"target": "HLA-B*45:01", "assay": "IEDB peptide-MHC binding, purified MHC/competitive/radioactivity; filed as Kd, often an IC50 or EC50 that approximates it; ≥ and ≤ were set here for values at or beyond the usual limits of such assays"}, "HLA-A*24:03": {"target": "HLA-A*24:03", "assay": "IEDB peptide-MHC binding, purified MHC/competitive/fluorescence; filed as Kd, often an IC50 or EC50 that approximates it; ≥ and ≤ were set here for values at or beyond the usual limits of such assays", "details": "source organism: Yersinia pestis Antiqua"}, "HLA-A*24:02": {"target": "HLA-A*24:02", "assay": "IEDB peptide-MHC binding, purified MHC/competitive/radioactivity; filed as Kd, often an IC50 or EC50 that approximates it; ≥ and ≤ were set here for values at or beyond the usual limits of such assays", "details": "source organism: Lassa virus Josiah"}, "HLA-A*23:01": {"target": "HLA-A*23:01", "assay": "IEDB peptide-MHC binding, purified MHC/competitive/radioactivity; filed as Kd, often an IC50 or EC50 that approximates it; ≥ and ≤ were set here for values at or beyond the usual limits of such assays", "details": "source organism: Lassa virus Josiah"}, "HLA-A*29:02": {"target": "HLA-A*29:02", "assay": "IEDB peptide-MHC binding, purified MHC/competitive/radioactivity; filed as Kd, often an IC50 or EC50 that approximates it; ≥ and ≤ were set here for values at or beyond the usual limits of such assays", "details": "source organism: Lassa virus Josiah"}, "HLA-A*02:01": {"target": "HLA-A*02:01", "assay": "IEDB peptide-MHC binding, purified MHC/competitive/radioactivity; filed as Kd, often an IC50 or EC50 that approximates it; ≥ and ≤ were set here for values at or beyond the usual limits of such assays"}, "HLA-A*02:17": {"target": "HLA-A*02:17", "assay": "IEDB peptide-MHC binding, purified MHC/competitive/radioactivity; filed as Kd, often an IC50 or EC50 that approximates it; ≥ and ≤ were set here for values at or beyond the usual limits of such assays"}, "[1]": {"details": "source organism: Mammarenavirus brazilense"}, "[2]": {"details": "source organism: Lymphocytic choriomeningitis virus (strain WE)"}, "[3]": {"details": "source organism: Mammarenavirus juninense"}, "[4]": {"details": "source organism: Mammarenavirus machupoense"}, "[5]": {"details": "source organism: SARS coronavirus Tor2"}, "[6]": {"details": "source organism: Lassa virus Josiah"}, "[7]": {"details": "source organism: Lymphocytic choriomeningitis virus (strain Armstrong)"}, "[8]": {"details": "source organism: Dengue virus 2 Jamaica/1409/1983"}, "[9]": {"details": "source organism: Dengue virus 3 Martinique/1243/1999"}},
  "data": [
    {"sequence": "AENGELTEI", "values": [
      {"measurement": "Kd", "setting": "HLA-B*18:01; [1]", "result": "≥ 77500", "unit": "nM"},
      {"measurement": "Kd", "setting": "HLA-B*44:02; [1]", "result": 181, "unit": "nM"},
      {"measurement": "Kd", "setting": "HLA-B*40:02; [1]", "result": 47.8, "unit": "nM"},
      {"measurement": "Kd", "setting": "HLA-B*44:03; [1]", "result": 319, "unit": "nM"},
      {"measurement": "Kd", "setting": "HLA-B*40:01; [1]", "result": 2030, "unit": "nM"},
      {"measurement": "Kd", "setting": "HLA-B*45:01; [1]", "result": 74, "unit": "nM"}
    ]},
    {"sequence": "LDVLCPSSL", "values": [
      {"measurement": "Kd", "setting": "HLA-B*18:01; [2]", "result": "≥ 77500", "unit": "nM"},
      {"measurement": "Kd", "setting": "HLA-B*44:02; [2]", "result": "≥ 22200", "unit": "nM"},
      {"measurement": "Kd", "setting": "HLA-B*40:02; [2]", "result": 487, "unit": "nM"},
      {"measurement": "Kd", "setting": "HLA-B*44:03; [2]", "result": "≥ 78100", "unit": "nM"},
      {"measurement": "Kd", "setting": "HLA-B*40:01; [2]", "result": "≥ 23600", "unit": "nM"},
      {"measurement": "Kd", "setting": "HLA-B*45:01; [2]", "result": "≥ 77700", "unit": "nM"}
    ]},
    {"sequence": "SDTQIPGVC", "values": [
      {"measurement": "Kd", "setting": "HLA-B*18:01; [3]", "result": "≥ 77500", "unit": "nM"},
      {"measurement": "Kd", "setting": "HLA-B*44:02; [3]", "result": "≥ 56200", "unit": "nM"},
      {"measurement": "Kd", "setting": "HLA-B*40:02; [3]", "result": 12200, "unit": "nM"},
      {"measurement": "Kd", "setting": "HLA-B*44:03; [3]", "result": "≥ 78100", "unit": "nM"},
      {"measurement": "Kd", "setting": "HLA-B*40:01; [3]", "result": "≥ 65600", "unit": "nM"},
      {"measurement": "Kd", "setting": "HLA-B*45:01; [3]", "result": "≥ 51000", "unit": "nM"}
    ]},
    {"sequence": "DETKKQVNLM", "values": [
      {"measurement": "Kd", "setting": "HLA-B*18:01; [3]", "result": 9010, "unit": "nM"},
      {"measurement": "Kd", "setting": "HLA-B*44:02; [3]", "result": "≥ 64600", "unit": "nM"},
      {"measurement": "Kd", "setting": "HLA-B*40:02; [3]", "result": "≥ 70800", "unit": "nM"},
      {"measurement": "Kd", "setting": "HLA-B*44:03; [3]", "result": "≥ 70100", "unit": "nM"},
      {"measurement": "Kd", "setting": "HLA-B*40:01; [3]", "result": 14600, "unit": "nM"},
      {"measurement": "Kd", "setting": "HLA-B*45:01; [3]", "result": "≥ 33100", "unit": "nM"}
    ]},
    {"sequence": "EEVLDVCPL", "values": [
      {"measurement": "Kd", "setting": "HLA-B*18:01; [4]", "result": 368, "unit": "nM"},
      {"measurement": "Kd", "setting": "HLA-B*44:02; [4]", "result": 13700, "unit": "nM"},
      {"measurement": "Kd", "setting": "HLA-B*40:02; [4]", "result": 85.2, "unit": "nM"},
      {"measurement": "Kd", "setting": "HLA-B*44:03; [4]", "result": 5440, "unit": "nM"},
      {"measurement": "Kd", "setting": "HLA-B*40:01; [4]", "result": 70.2, "unit": "nM"},
      {"measurement": "Kd", "setting": "HLA-B*45:01; [4]", "result": 2480, "unit": "nM"}
    ]},
    {"sequence": "PFGQWDQTF", "values": [
      {"measurement": "Kd", "setting": "HLA-A*24:03", "result": 209, "unit": "nM"}
    ]},
    {"sequence": "SFYYIWKSYV", "values": [
      {"measurement": "Kd", "setting": "HLA-B*18:01; [5]", "result": "≥ 70500", "unit": "nM"},
      {"measurement": "Kd", "setting": "HLA-B*44:02; [5]", "result": 415, "unit": "nM"},
      {"measurement": "Kd", "setting": "HLA-B*40:02; [5]", "result": 2320, "unit": "nM"},
      {"measurement": "Kd", "setting": "HLA-B*44:03; [5]", "result": 319, "unit": "nM"},
      {"measurement": "Kd", "setting": "HLA-B*40:01; [5]", "result": 1150, "unit": "nM"},
      {"measurement": "Kd", "setting": "HLA-B*45:01; [5]", "result": 1150, "unit": "nM"}
    ]},
    {"sequence": "YDHALMSII", "values": [
      {"measurement": "Kd", "setting": "HLA-B*18:01; [6]", "result": "≥ 25400", "unit": "nM"},
      {"measurement": "Kd", "setting": "HLA-B*44:02; [6]", "result": 7050, "unit": "nM"},
      {"measurement": "Kd", "setting": "HLA-B*40:02; [6]", "result": 49.5, "unit": "nM"},
      {"measurement": "Kd", "setting": "HLA-A*24:02", "result": "≥ 30800", "unit": "nM"},
      {"measurement": "Kd", "setting": "HLA-B*44:03; [6]", "result": "≥ 33400", "unit": "nM"},
      {"measurement": "Kd", "setting": "HLA-A*23:01", "result": 7730, "unit": "nM"},
      {"measurement": "Kd", "setting": "HLA-A*29:02", "result": "≥ 46600", "unit": "nM"},
      {"measurement": "Kd", "setting": "HLA-B*40:01; [6]", "result": "≥ 26600", "unit": "nM"},
      {"measurement": "Kd", "setting": "HLA-B*45:01; [6]", "result": "≥ 68600", "unit": "nM"}
    ]},
    {"sequence": "FEEAALCTFL", "values": [
      {"measurement": "Kd", "setting": "HLA-B*18:01; [5]", "result": 477, "unit": "nM"},
      {"measurement": "Kd", "setting": "HLA-B*44:02; [5]", "result": 96.2, "unit": "nM"},
      {"measurement": "Kd", "setting": "HLA-B*40:02; [5]", "result": 14, "unit": "nM"},
      {"measurement": "Kd", "setting": "HLA-B*44:03; [5]", "result": 45.9, "unit": "nM"},
      {"measurement": "Kd", "setting": "HLA-B*40:01; [5]", "result": 1.98, "unit": "nM"},
      {"measurement": "Kd", "setting": "HLA-B*45:01; [5]", "result": 163, "unit": "nM"}
    ]},
    {"sequence": "REAVESCPL", "values": [
      {"measurement": "Kd", "setting": "HLA-B*18:01; [7]", "result": 10300, "unit": "nM"},
      {"measurement": "Kd", "setting": "HLA-B*44:02; [7]", "result": 5840, "unit": "nM"},
      {"measurement": "Kd", "setting": "HLA-B*40:02; [7]", "result": 58.7, "unit": "nM"},
      {"measurement": "Kd", "setting": "HLA-B*44:03; [7]", "result": 13200, "unit": "nM"},
      {"measurement": "Kd", "setting": "HLA-B*40:01; [7]", "result": 11100, "unit": "nM"},
      {"measurement": "Kd", "setting": "HLA-B*45:01; [7]", "result": "≥ 60800", "unit": "nM"}
    ]},
    {"sequence": "KMEKASFIEV", "values": [
      {"measurement": "Kd", "setting": "HLA-A*02:01; [8]", "result": 143, "unit": "nM"},
      {"measurement": "Kd", "setting": "HLA-A*02:17; [8]", "result": 1860, "unit": "nM"}
    ]},
    {"sequence": "SETLLPLTQY", "values": [
      {"measurement": "Kd", "setting": "HLA-B*18:01; [5]", "result": 66.5, "unit": "nM"},
      {"measurement": "Kd", "setting": "HLA-B*44:02; [5]", "result": 52.1, "unit": "nM"},
      {"measurement": "Kd", "setting": "HLA-B*40:02; [5]", "result": 1880, "unit": "nM"},
      {"measurement": "Kd", "setting": "HLA-B*44:03; [5]", "result": 33.2, "unit": "nM"},
      {"measurement": "Kd", "setting": "HLA-B*40:01; [5]", "result": 13100, "unit": "nM"},
      {"measurement": "Kd", "setting": "HLA-B*45:01; [5]", "result": 1750, "unit": "nM"}
    ]},
    {"sequence": "QLWTALISL", "values": [
      {"measurement": "Kd", "setting": "HLA-A*02:01; [9]", "result": 1.45, "unit": "nM"},
      {"measurement": "Kd", "setting": "HLA-A*02:17; [9]", "result": 234, "unit": "nM"}
    ]}
  ]
}
